Target: V5-tagged ASH2L (absent small homeotic-2-like protein) (mouse, UniProt Q91X20 1-623)
Assay: cell-based or functional assay

V5-tagged ASH2L (absent small homeotic-2-like protein), sequence (Q91X20 whole entry): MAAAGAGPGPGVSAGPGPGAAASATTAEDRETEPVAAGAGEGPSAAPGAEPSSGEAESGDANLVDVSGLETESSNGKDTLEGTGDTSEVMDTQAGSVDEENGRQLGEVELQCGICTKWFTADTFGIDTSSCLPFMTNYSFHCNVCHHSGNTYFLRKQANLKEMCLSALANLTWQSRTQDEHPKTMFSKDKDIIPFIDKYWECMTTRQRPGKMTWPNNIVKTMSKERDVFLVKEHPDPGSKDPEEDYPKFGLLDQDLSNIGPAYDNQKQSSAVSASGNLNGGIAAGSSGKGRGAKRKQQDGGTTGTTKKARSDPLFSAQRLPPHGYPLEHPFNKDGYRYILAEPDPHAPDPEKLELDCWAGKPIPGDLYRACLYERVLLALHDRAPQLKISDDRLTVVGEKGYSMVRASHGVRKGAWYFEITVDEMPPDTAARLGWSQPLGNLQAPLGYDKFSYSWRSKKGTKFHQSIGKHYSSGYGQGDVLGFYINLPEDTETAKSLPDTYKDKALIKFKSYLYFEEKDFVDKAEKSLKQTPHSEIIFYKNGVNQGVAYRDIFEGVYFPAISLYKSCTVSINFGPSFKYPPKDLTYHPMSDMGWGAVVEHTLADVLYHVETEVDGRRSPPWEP

B1: Myc-tagged Smyd1 (SET and MYND domain-containing protein 1) (natural protein, mouse, UniProt P97443 1-490, looked up)
chain: MTIGSMENVEVFTSEGKGRGLKATKEFWAADVIFAERAYSAVVFDSLINFVCHTCFKRQEKLHRCGQCKFAHYCDRTCQKDAWLNHKNECAAIKKYGKVPNENIRLAARIMWRVEREGTGLTEGCLVSVDDLQNHVEHFGEEEQKELRVDVDTFLQYWPPQSQQFSMQYISHIFGVINCNGFTLSDQRGLQAVGVGIFPNLGLVNHDCWPNCTVIFNNGNHEAVKSMFHTQMRIELRALGKISEGEELTVSYIDFLHLSEERRRQLKKQYYFDCSCEHCQKGLKDDLFLAAKEDPKPSQEVVKEMIQFSKDTLEKIDKARSEGLYHEVVKLCRECLEKQEPVFADTNLYVLRLLSIASEVLSYLQAYEEASHYARRMVDGYMKLYHHNNAQLGMAVMRAGLTNWHAGHIEVGHGMICKAYAILLVTHGPSHPITKDLEAMRMQTEMELRMFRQNEFMYHKMREAALNNQPMQVMAEPSNEPAPALFHKKQ
  Isl1 promoter (pLG3-Isl1-WT) luciferase reporter activity in C2C12 cells, ASH2L overexpressed with Smyd1: 25 fold above basal level
